Paper PMC10936184

Biological target: MipA-His6 (Pseudomonas aeruginosa)
Assay: nano-DSF; isothermal analysis with FoldAffinity: MipA-His6 (5 µM) incubated for 2 h at room temperature with PMB or PME from 76 nM up to 2.5 mM; one site model; fits at 51°C, 52°C and 53°C

With polymyxin B (peptide) the Kd was 8.4 to 10 µM.

With polymyxin E (peptide) the Kd was 2.8 to 3.4 µM.
